The Kd is the free concentration of one partner at which half of the binding sites on the other are occupied at equilibrium, for simple one-to-one binding. As usually defined, the stoichiometry N is the number of molecules, sites or subunits per partner or assembly.

In one experiment the target is C3d C3d (Homo sapiens) (UniProt P01024). The note with it: cited from earlier work.
In experiment [1] the target is Complement factor H (Homo sapiens) (UniProt P08603). The note with it: cited from earlier work.
The target of experiment [2] is FH fragment SCR-16/20 (human). Put plainly: AUC; sedimentation velocity, SCR-16/20 at 0.1 mg/ml, Hepes buffer, 20 °C, c(s) analysis; monomer and dimer peaks across the ZnSO4 titration 0-600 μM.

Sequence of Complement factor H (P08603 19-1231): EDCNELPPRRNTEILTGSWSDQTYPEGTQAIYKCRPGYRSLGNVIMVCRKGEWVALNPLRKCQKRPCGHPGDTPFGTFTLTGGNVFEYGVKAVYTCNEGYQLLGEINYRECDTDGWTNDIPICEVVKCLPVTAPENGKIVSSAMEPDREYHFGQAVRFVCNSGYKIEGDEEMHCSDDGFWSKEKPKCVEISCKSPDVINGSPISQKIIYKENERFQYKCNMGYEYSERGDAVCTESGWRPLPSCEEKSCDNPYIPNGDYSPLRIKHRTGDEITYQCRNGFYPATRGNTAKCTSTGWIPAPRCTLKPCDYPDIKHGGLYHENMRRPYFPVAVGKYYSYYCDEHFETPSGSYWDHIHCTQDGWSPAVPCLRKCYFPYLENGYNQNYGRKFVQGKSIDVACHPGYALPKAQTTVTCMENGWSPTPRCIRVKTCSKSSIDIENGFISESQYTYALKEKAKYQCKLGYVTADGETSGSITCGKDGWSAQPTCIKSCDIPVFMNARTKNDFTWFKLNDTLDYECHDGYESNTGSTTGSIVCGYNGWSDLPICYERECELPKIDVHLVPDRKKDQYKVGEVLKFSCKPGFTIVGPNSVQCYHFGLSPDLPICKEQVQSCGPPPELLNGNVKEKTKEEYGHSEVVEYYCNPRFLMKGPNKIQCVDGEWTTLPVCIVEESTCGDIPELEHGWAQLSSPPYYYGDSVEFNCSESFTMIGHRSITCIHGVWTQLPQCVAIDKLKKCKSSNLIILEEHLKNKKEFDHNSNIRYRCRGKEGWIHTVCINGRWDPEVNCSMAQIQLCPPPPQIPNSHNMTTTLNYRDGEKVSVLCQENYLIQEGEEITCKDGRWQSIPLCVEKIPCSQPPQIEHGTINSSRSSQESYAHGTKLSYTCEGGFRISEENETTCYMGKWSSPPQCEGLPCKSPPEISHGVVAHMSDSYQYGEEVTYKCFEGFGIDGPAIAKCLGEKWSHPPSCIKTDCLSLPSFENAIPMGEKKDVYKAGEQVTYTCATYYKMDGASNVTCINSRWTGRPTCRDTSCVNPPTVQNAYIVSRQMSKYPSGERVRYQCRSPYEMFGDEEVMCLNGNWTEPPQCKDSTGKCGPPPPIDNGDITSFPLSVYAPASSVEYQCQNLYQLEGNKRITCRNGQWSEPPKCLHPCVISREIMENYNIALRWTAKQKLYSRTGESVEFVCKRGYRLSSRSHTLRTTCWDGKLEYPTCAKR
Sequence of C3d C3d (Homo sapiens) (P01024 1002-1303): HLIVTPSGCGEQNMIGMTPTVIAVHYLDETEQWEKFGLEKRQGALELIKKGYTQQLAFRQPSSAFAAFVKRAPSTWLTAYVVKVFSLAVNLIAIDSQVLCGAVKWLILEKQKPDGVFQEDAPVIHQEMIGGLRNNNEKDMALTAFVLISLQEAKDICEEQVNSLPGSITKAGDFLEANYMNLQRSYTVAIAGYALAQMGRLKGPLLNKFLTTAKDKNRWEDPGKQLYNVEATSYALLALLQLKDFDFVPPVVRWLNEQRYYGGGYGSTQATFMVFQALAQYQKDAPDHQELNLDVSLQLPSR
Sequence of FH fragment SCR-16/20 (domain or fragment) (P08603 19-1231): as the sequence (P08603 19-1231) above

For “Complement factor H (from UniProt P08603)”, the results for the dissociation constant Kd (with C3d C3d (Homo sapiens); in experiment [1]) were 2.6 µM and 28 µM, respectively.

For the substance “FH fragment SCR-16/20 (domain or fragment)”, the stoichiometry N in experiment [2] was 2.

The record behind these values is article PMC3092982.
